System: pentapeptide DYDYQ (Asp695-Tyr696-Asp697-Tyr698-Gln699 of human factor Va heavy chain)

human thrombin
activation of factor V by thrombin (cleavage at Arg709), SDS-PAGE and immunoblot, thrombin preincubated with 100 µM peptide: the pentapeptide is a potent inhibitor of factor V activation by thrombin

Source: patent US20070299013
